{
  "source": "patent US8361510B2",
  "about": "“Nanogels for cellular delivery of therapeutics” (Georgia Tech Research Corporation, priority 2008, dated 2013)",
  "tested_on": "Hey cells",
  "test": "Trypan blue exclusion assay",
  "format": "cell-based",
  "method": "Toxicity Studies—Trypan blue exclusion assay. Hey cells were plated onto an 8-well chamber slide (1×10^4 cells/well) and allowed to adhere overnight at 37° C. and 5% CO2. The media was removed, the wells washed with PBS, and the medium replaced. PNIPMAm nanogels, YSA-conjugated nanogels, and SCR-conjugated nanogels were added to cells and incubated for 72 h. Untreated cells were used as controls. After 72 h, the cells washed with PBS, and a 1:1 solution of trypan blue was added to each well. After 1 min, the trypan blue was removed, the cells were washed with PBS, fixed with 2% (v/v) paraformaldehyde, and air dried. Each well was then viewed via bright field microscopy to determine the number of stained (dead) versus unstained cells. Five fields were viewed for each treatment.",
  "note": "Where no end group is shown, it is not given here.",
  "data": [
    {"substance": "YSA-conjugated nanogels: core/shell pNIPMAm nanogels with YSA peptide coupled to shell amines via maleimide (EMCA) (YSAYPDSVPMMSC; also: coupled to nanogel shell amines via maleimide (EMCA))", "values": [
      {"measurement": "blue (dead) cells", "value": "not observed"}
    ]}
  ]
}
